Target: T1, human programmed death ligand 1 (PD-L1) (human, UniProt Q9NZQ7 19-290)
T1 construct: Endogenous PD-L1 on tumor, stromal and inflammatory cells in formalin-fixed, paraffin-embedded tumor tissue sections; 22C3 is described as an anti-human PD-L1 antibody; also called mature PD-L1; hPD-L1
Assay: IHC on FFPE NSCLC tissue section

T1 sequence (Q9NZQ7 19-290): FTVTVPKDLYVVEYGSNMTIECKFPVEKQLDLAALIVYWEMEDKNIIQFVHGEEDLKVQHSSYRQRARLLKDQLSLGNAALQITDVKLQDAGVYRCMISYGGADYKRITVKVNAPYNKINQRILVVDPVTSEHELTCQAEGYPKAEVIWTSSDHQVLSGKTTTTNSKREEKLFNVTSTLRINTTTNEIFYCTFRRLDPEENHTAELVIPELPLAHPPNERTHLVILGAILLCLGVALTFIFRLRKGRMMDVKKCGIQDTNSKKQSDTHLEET

B1: monoclonal antibody 22C3 (antibody, V domains shown)
VH: QVHLQQSGAELAKPGASVKMSCKASGYTFTSYWIHWIKQRPGQGLEWIGYINPSSGYHEYNQKFIDKATLTADRSSSTAYMHLTSLTSEDSAVYYCARSGWLIHGDYYFDFWGQGTTLTVSS
VL: DIVMSQSPSSLAVSAGEKVTMTCKSSQSLLHTSTRKNYLAWYQQKPGQSPKLLIYWASTRESGVPDRFTGSGSGTDFTLTISSVQAEDLAVYYCKQSYDVVTFGAGTKLELK
notes: Whole hybridoma antibody used as primary antibody in IHC; also called MEB037.22C3; PD-L1 22C3 antibody
  binding result: binds

From patent US20160084839A1 (Merck Sharp & Dohme, published 2016)
